These results are taken from FireProtDB (doi:10.1006/jmbi.1995.0616).

The conditions of this data set: Hordeum vulgare; pH 6.25; 25 °C; GdnHCl; Fluorescence; MES 50 mM; reversible: yes; whole UniProt chain shown.

B1: Subtilisin-chymotrypsin inhibitor-2A wild type, P01053 (protein)
chain: MSSVEKKPEGVNTGAGDRHNLKTEWPELVGKSVEEAKKVILQDKPEAQIIVLPVGTIVTMEYRIDRVRLFVDKLDNIAQVPRVG
As for B1, the denaturant m value was 1.9 kcal/mol/M, the “denaturant midpoint (higher = more stable)” value is 4 M and the unfolding free energy is 7.6 kcal/mol.
